In assay [1] the target is EIF1. The experiment in a line: Strep-tactin pull-down from HeLa lysate, label-free quantification mass spectrometry. Conditions: three biological repeats measured in three technical repeats each; -log10(p-value) est. 1.2; read off a plot.
In assay [2] the target is KIF18B (UniProt Q86Y91). The description is as above. Conditions: three biological repeats measured in three technical repeats each; -log10(p-value) est. 1.5; read off a plot.
The target in assay [3] is TUBA1A. The assay is described as above. The note with it: three biological repeats measured in three technical repeats each; -log10(p-value) est. 3.7; read off a plot.
Assay [4] concerns the target COPS7A. Described as above. Conditions: three biological repeats measured in three technical repeats each; -log10(p-value) est. 2.2; read off a plot.
Assay [5] deals with Nbla03646. The description is as above. The note with it: three biological repeats measured in three technical repeats each; -log10(p-value) est. 2.1; read off a plot.
Assay [6] addresses UBL4A. The description is as above. The note with it: three biological repeats measured in three technical repeats each; -log10(p-value) est. 1.4; read off a plot.
The target of assay [7] is TUBB2B. The assay is described as above. The note with it: three biological repeats measured in three technical repeats each; -log10(p-value) est. 3.6; read off a plot.
The target in assay [8] is FAM91A1. The description is as above. Conditions: three biological repeats measured in three technical repeats each; -log10(p-value) est. 3.0; read off a plot.
Assay [9] has as its target LYST. The assay is described as above. Conditions: three biological repeats measured in three technical repeats each; -log10(p-value) est. 0.97; read off a plot.
For assay [10], the target named is SMG8. Described as above. Conditions: three biological repeats measured in three technical repeats each; -log10(p-value) est. 2.2; read off a plot.
The target in assay [11] is NUP35. The description is as above. The note with it: three biological repeats measured in three technical repeats each; -log10(p-value) est. 3.6; read off a plot.
Assay [12] concerns the target TUBB4A. Described as above. The note with it: three biological repeats measured in three technical repeats each; -log10(p-value) est. 3.8; read off a plot.
The target of assay [13] is HSP90AB4P. Described as above. Conditions: three biological repeats measured in three technical repeats each; -log10(p-value) est. 1.0; read off a plot.
The target of assay [14] is GPHN. Described as above. Conditions: three biological repeats measured in three technical repeats each; -log10(p-value) est. 1.3; read off a plot.
Assay [15] has as its target TUBA3C. Described as above. Conditions: three biological repeats measured in three technical repeats each; -log10(p-value) est. 4.2; read off a plot.
Assay [16] concerns the target TIMM13. The assay is described as above. The note with it: three biological repeats measured in three technical repeats each; -log10(p-value) est. 2.6; read off a plot.
For assay [17], the target named is BAX. The description is as above. Conditions: three biological repeats measured in three technical repeats each; -log10(p-value) est. 1.7; read off a plot.
Assay [18] addresses RacGAP1 (UniProt Q9H0H5). The assay is described as above. Conditions: three biological repeats measured in three technical repeats each; -log10(p-value) est. 2.8; read off a plot.
UniProt Q9H0H5, sequence (Q9H0H5 whole entry, looked up): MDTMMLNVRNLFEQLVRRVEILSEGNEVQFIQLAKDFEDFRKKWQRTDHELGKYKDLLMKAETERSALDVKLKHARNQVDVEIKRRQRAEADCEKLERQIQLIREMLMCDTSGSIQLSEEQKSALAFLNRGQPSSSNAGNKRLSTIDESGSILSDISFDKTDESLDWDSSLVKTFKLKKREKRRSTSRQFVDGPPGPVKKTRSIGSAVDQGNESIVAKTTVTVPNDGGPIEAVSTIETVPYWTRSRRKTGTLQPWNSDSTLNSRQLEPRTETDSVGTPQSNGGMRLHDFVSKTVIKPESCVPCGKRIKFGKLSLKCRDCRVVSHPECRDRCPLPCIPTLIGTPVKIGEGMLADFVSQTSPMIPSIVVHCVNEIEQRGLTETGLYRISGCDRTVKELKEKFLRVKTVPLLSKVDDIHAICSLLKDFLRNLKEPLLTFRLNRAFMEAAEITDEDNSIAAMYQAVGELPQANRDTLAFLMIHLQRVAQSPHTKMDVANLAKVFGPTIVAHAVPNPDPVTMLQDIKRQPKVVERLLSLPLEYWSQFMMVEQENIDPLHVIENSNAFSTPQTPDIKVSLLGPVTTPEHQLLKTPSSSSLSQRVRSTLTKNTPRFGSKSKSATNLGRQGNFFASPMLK
For assay [19], the target named is ANAPC2. Put plainly: Strep-tactin pull-down, label-free quantification mass spectrometry. Conditions: complexes SUMOylated in vitro, HeLa lysate added; three biological repeats measured in three technical repeats each.
Assay [20] deals with ANAPC10. The assay is described as above. The note with it: complexes SUMOylated in vitro, HeLa lysate added; three biological repeats measured in three technical repeats each.
Assay [21] has as its target ANAPC15. The assay is described as above. Conditions: complexes SUMOylated in vitro, HeLa lysate added; three biological repeats measured in three technical repeats each.
Assay [22] addresses ANAPC1. Described as above. Conditions: complexes SUMOylated in vitro, HeLa lysate added; three biological repeats measured in three technical repeats each.
Assay [23] has as its target CDC23. Described as above. Conditions: complexes SUMOylated in vitro, HeLa lysate added; three biological repeats measured in three technical repeats each.
In assay [24] the target is CDC16. The assay is described as above. The note with it: complexes SUMOylated in vitro, HeLa lysate added; three biological repeats measured in three technical repeats each.
Assay [25] concerns the target CDC26. The assay is described as above. Conditions: complexes SUMOylated in vitro, HeLa lysate added; three biological repeats measured in three technical repeats each.
Assay [26] has as its target ANAPC5. The description is as above. The note with it: complexes SUMOylated in vitro, HeLa lysate added; three biological repeats measured in three technical repeats each.
The target in assay [27] is CDC27. The description is as above. Conditions: complexes SUMOylated in vitro, HeLa lysate added; three biological repeats measured in three technical repeats each.
For assay [28], the target named is ANAPC16. The description is as above. The note with it: complexes SUMOylated in vitro, HeLa lysate added; three biological repeats measured in three technical repeats each.
Assay [29] concerns the target ANAPC13. The description is as above. The note with it: complexes SUMOylated in vitro, HeLa lysate added; three biological repeats measured in three technical repeats each.
Assay [30] concerns the target ANAPC2. Put plainly: Strep-tactin pull-down, mass spectrometry spectral counting. Conditions: complexes SUMOylated in vitro, HeLa lysate added; three biological repeats measured in three technical repeats each.
In assay [31] the target is ANAPC10. Described as above. Conditions: complexes SUMOylated in vitro, HeLa lysate added; three biological repeats measured in three technical repeats each.
For assay [32], the target named is ANAPC15. Described as above. The note with it: complexes SUMOylated in vitro, HeLa lysate added; three biological repeats measured in three technical repeats each.
For assay [33], the target named is ANAPC1. Described as above. Conditions: complexes SUMOylated in vitro, HeLa lysate added; three biological repeats measured in three technical repeats each.
Assay [34] deals with CDC23. The assay is described as above. Conditions: complexes SUMOylated in vitro, HeLa lysate added; three biological repeats measured in three technical repeats each.
The target in assay [35] is CDC16. The assay is described as above. The note with it: complexes SUMOylated in vitro, HeLa lysate added; three biological repeats measured in three technical repeats each.
Assay [36] has as its target CDC26. Described as above. Conditions: complexes SUMOylated in vitro, HeLa lysate added; three biological repeats measured in three technical repeats each.
Assay [37] deals with ANAPC5. The assay is described as above. Conditions: complexes SUMOylated in vitro, HeLa lysate added; three biological repeats measured in three technical repeats each.
Assay [38] has as its target CDC27. Described as above. Conditions: complexes SUMOylated in vitro, HeLa lysate added; three biological repeats measured in three technical repeats each.
The target of assay [39] is ANAPC16. Described as above. The note with it: complexes SUMOylated in vitro, HeLa lysate added; three biological repeats measured in three technical repeats each.
The target in assay [40] is ANAPC13. The description is as above. The note with it: complexes SUMOylated in vitro, HeLa lysate added; three biological repeats measured in three technical repeats each.

UniProt Q86Y91, sequence (Q86Y91 whole entry, looked up): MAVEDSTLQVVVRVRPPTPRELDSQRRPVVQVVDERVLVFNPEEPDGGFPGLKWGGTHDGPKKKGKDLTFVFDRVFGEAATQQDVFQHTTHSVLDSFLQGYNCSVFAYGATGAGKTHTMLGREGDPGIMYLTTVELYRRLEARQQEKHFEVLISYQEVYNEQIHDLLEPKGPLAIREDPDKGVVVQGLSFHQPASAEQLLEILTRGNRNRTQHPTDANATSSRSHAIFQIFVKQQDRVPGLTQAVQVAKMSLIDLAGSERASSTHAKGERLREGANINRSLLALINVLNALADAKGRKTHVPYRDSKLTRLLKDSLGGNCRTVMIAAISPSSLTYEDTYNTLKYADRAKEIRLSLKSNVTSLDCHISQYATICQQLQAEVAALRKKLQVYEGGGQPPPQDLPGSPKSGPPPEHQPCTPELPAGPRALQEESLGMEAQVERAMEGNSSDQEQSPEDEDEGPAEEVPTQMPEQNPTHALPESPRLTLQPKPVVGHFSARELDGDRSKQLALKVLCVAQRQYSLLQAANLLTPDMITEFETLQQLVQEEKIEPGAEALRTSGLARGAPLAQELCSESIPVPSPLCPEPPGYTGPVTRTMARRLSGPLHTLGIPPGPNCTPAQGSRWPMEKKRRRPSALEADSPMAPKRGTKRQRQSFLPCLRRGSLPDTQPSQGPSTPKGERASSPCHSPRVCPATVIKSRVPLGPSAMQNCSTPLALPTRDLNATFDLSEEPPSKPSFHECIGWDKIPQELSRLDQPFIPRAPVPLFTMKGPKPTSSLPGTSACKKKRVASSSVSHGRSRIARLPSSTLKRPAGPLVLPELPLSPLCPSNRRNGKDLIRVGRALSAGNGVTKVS

On to “SUMOylated recombinant APC/C containing APC4 wild type (from UniProt Q9UJX5;P55854;Q9UJX3;Q9NYG5;Q9H1A4;Q9UJX6;P30260;Q9UJX4;Q9UJX2;P60006) K772R; K798R”, for which the other: Ratio (log2) of protein intensities, wild-type APC4 / mutant APC4 was -1.6 log2 in assay [1]; 1.8 log2 in assay [2]; -1.5 log2 in assay [3]; 1 log2 in assay [4]; -2.9 log2 in assay [5]; -1.4 log2 in [6]. In addition, the other: Ratio (log2) of protein intensities, wild-type APC4 / mutant APC4 in [7] is 4.3 log2; in assay [8], 2.4 log2; in assay [9], 3.8 log2; in assay [10], -1 log2; in assay [11], -1.4 log2; in assay [12], -1 log2. Besides, the other: Ratio (log2) of protein intensities, wild-type APC4 / mutant APC4 in assay [13] was 2.5 log2; in [14], -1.7 log2; in [15] it was -1.9 log2; in assay [16] it was -1.8 log2; in [17], 1.3 log2; in assay [18], -1.6 log2.
In the case of “Strep-tagged APC4 wild type of the recombinant APC/C, SUMOylated in vitro (from UniProt Q9UJX5;P55854) K772R; K798R”, the other: LFQ ratio (WT/mutant, log2) in assay [19] is 0.4 log2; in assay [20], 0.44 log2; in assay [21] it was 0.4 log2; in [22] it was 0.35 log2; in assay [23], 0.33 log2; in assay [24], 0.34 log2. Further, the other: LFQ ratio (WT/mutant, log2) in assay [25] came out at 0.49 log2; in assay [26], 0.22 log2; in [27], 0.36 log2; in [28] it was 0.37 log2; in assay [29], 0.25 log2. In addition, the other: MS/MS ratio (WT/mutant, log2) stood at 0.08 log2 in assay [30]; 0.34 log2 in [31]; 0.2 log2 in assay [32]; 0.26 log2 in [33]; 0.31 log2 in assay [34]; 0.23 log2 in [35]. The other: MS/MS ratio (WT/mutant, log2) in assay [36] was 0.17 log2; in assay [37], 0.17 log2; in assay [38], 0.24 log2; in [39], 0.19 log2; in assay [40] it was 0.12 log2.

(Values after article PMC5856775.)
